± gives the uncertainty stated by the source.

The chains are these.
B1: Transcriptional regulator ERG, residues 117 to 197; numbered along this chain, P11308 (parent)
chain: NMTTNERRVIVPADPTLWSTDHVRQWLEWAVKEYGLPDVNILLFQNIDGKELCKMTKDDFQRLTPSYNADILLSHLHYLRE

This data set covers variants of B1. Description: abundance fitness (aPCA) (normalised: wild type 0, dead -1); higher = more abundant; growth selection in yeast, the domain comes from the species named. To be noted: Homo sapiens.
In the case of NMTTNERRVIVPADPTLWSTDHVRQWLEWAVKEYGLPDVNICLFQNIDGKELCKMTKDDFQRLTPSYNADILLSHLHYLRE [L42C], the abundance fitness was -0.051 ± 0.052.

On to NMTTNERRVIVPADPTLWSTDHVRQWLEWAVKEYGLPDVNIVLFQNIDGKELCKMTKDDFQRLTPSYNADILLSHLHYLRE [L42V], for which the abundance fitness was -0.027 ± 0.035.

As to NMTTNERRVIVPADPTLWSTDHVRQWLEWAVKEYGLPDVNIWLFQNIDGKELCKMTKDDFQRLTPSYNADILLSHLHYLRE [L42W], the abundance fitness is -0.024 ± 0.038.

For the variant NMTTNERRVIVPADPTLWSTDHVRQWLEWAVKEYGLPDVNIKLFQNIDGKELCKMTKDDFQRLTPSYNADILLSHLHYLRE [L42K], the abundance fitness was -0.008 ± 0.054.

In the case of NMTTNERRVIVPADPTLWSTDHVRQWLEWAVKEYGLPDVNIGLFQNIDGKELCKMTKDDFQRLTPSYNADILLSHLHYLRE [L42G], the abundance fitness is 0.033 ± 0.029.

Turning to NMTTNERRVIVPADPTLWSTDHVRQWLEWAVKEYGLPDVNIILFQNIDGKELCKMTKDDFQRLTPSYNADILLSHLHYLRE [L42I], the abundance fitness is -0.112 ± 0.087.

Regarding NMTTNERRVIVPADPTLWSTDHVRQWLEWAVKEYGLPDVNIFLFQNIDGKELCKMTKDDFQRLTPSYNADILLSHLHYLRE [L42F], the abundance fitness was -0.154 ± 0.082.

For the variant NMTTNERRVIVPADPTLWSTDHVRQWLEWAVKEYGLPDVNIALFQNIDGKELCKMTKDDFQRLTPSYNADILLSHLHYLRE [L42A], the abundance fitness turned out to be 0.014 ± 0.038.

NMTTNERRVIVPADPTLWSTDHVRQWLEWAVKEYGLPDVNIDLFQNIDGKELCKMTKDDFQRLTPSYNADILLSHLHYLRE [L42D]: the abundance fitness is -0.068 ± 0.063.

Consider NMTTNERRVIVPADPTLWSTDHVRQWLEWAVKEYGLPDVNISLFQNIDGKELCKMTKDDFQRLTPSYNADILLSHLHYLRE [L42S], for which the abundance fitness is 0.012 ± 0.041.

Regarding NMTTNERRVIVPADPTLWSTDHVRQWLEWAVKEYGLPDVNINLFQNIDGKELCKMTKDDFQRLTPSYNADILLSHLHYLRE [L42N], the abundance fitness was determined as 0.078 ± 0.067.

For NMTTNERRVIVPADPTLWSTDHVRQWLEWAVKEYGLPDVNIELFQNIDGKELCKMTKDDFQRLTPSYNADILLSHLHYLRE [L42E], the abundance fitness is -0.001 ± 0.043.

Turning to NMTTNERRVIVPADPTLWSTDHVRQWLEWAVKEYGLPDVNITLFQNIDGKELCKMTKDDFQRLTPSYNADILLSHLHYLRE [L42T], the abundance fitness is -0.042 ± 0.053.

Consider NMTTNERRVIVPADPTLWSTDHVRQWLEWAVKEYGLPDVNIRLFQNIDGKELCKMTKDDFQRLTPSYNADILLSHLHYLRE [L42R], for which the abundance fitness is 0.056 ± 0.031.

Consider NMTTNERRVIVPADPTLWSTDHVRQWLEWAVKEYGLPDVNIYLFQNIDGKELCKMTKDDFQRLTPSYNADILLSHLHYLRE [L42Y], for which the abundance fitness is -0.018 ± 0.072.

On to NMTTNERRVIVPADPTLWSTDHVRQWLEWAVKEYGLPDVNDLLFQNIDGKELCKMTKDDFQRLTPSYNADILLSHLHYLRE [I41D], for which the abundance fitness was -0.157 ± 0.072.

Turning to NMTTNERRVIVPADPTLWSTDHVRQWLEWAVKEYGLPDVNVLLFQNIDGKELCKMTKDDFQRLTPSYNADILLSHLHYLRE [I41V], the abundance fitness is -0.021 ± 0.039.

Take NMTTNERRVIVPADPTLWSTDHVRQWLEWAVKEYGLPDVNNLLFQNIDGKELCKMTKDDFQRLTPSYNADILLSHLHYLRE [I41N]: the abundance fitness was -0.136 ± 0.081.

For the variant NMTTNERRVIVPADPTLWSTDHVRQWLEWAVKEYGLPDVNYLLFQNIDGKELCKMTKDDFQRLTPSYNADILLSHLHYLRE [I41Y], the abundance fitness was -0.057 ± 0.073.

Take NMTTNERRVIVPADPTLWSTDHVRQWLEWAVKEYGLPDVNLLLFQNIDGKELCKMTKDDFQRLTPSYNADILLSHLHYLRE [I41L]: the abundance fitness is -0.027 ± 0.038.

With NMTTNERRVIVPADPTLWSTDHVRQWLEWAVKEYGLPDVNMLLFQNIDGKELCKMTKDDFQRLTPSYNADILLSHLHYLRE [I41M], the abundance fitness is -0.061 ± 0.056.

Turning to NMTTNERRVIVPADPTLWSTDHVRQWLEWAVKEYGLPDVNFLLFQNIDGKELCKMTKDDFQRLTPSYNADILLSHLHYLRE [I41F], the abundance fitness turned out to be 0 ± 0.076.

For the variant NMTTNERRVIVPADPTLWSTDHVRQWLEWAVKEYGLPDVNWLLFQNIDGKELCKMTKDDFQRLTPSYNADILLSHLHYLRE [I41W], the abundance fitness is -0.159 ± 0.045.

Regarding NMTTNERRVIVPADPTLWSTDHVRQWLEWAVKEYGLPDVNALLFQNIDGKELCKMTKDDFQRLTPSYNADILLSHLHYLRE [I41A], the abundance fitness is -0.145 ± 0.044.

On to NMTTNERRVIVPADPTLWSTDHVRQWLEWAVKEYGLPDVNRLLFQNIDGKELCKMTKDDFQRLTPSYNADILLSHLHYLRE [I41R], for which the abundance fitness is -0.187 ± 0.036.

For NMTTNERRVIVPADPTLWSTDHVRQWLEWAVKEYGLPDVNTLLFQNIDGKELCKMTKDDFQRLTPSYNADILLSHLHYLRE [I41T], the abundance fitness was -0.034 ± 0.057.

On to NMTTNERRVIVPADPTLWSTDHVRQWLEWAVKEYGLPDVNQLLFQNIDGKELCKMTKDDFQRLTPSYNADILLSHLHYLRE [I41Q], for which the abundance fitness was -0.112 ± 0.054.

Regarding NMTTNERRVIVPADPTLWSTDHVRQWLEWAVKEYGLPDVNCLLFQNIDGKELCKMTKDDFQRLTPSYNADILLSHLHYLRE [I41C], the abundance fitness was -0.034 ± 0.053.

On to NMTTNERRVIVPADPTLWSTDHVRQWLEWAVKEYGLPDVNGLLFQNIDGKELCKMTKDDFQRLTPSYNADILLSHLHYLRE [I41G], for which the abundance fitness was -0.097 ± 0.035.

Take NMTTNERRVIVPADPTLWSTDHVRQWLEWAVKEYGLPDVNKLLFQNIDGKELCKMTKDDFQRLTPSYNADILLSHLHYLRE [I41K]: the abundance fitness came to 0.012 ± 0.05.

With NMTTNERRVIVPADPTLWSTDHVRQWLEWAVKEYGLPDVNSLLFQNIDGKELCKMTKDDFQRLTPSYNADILLSHLHYLRE [I41S], the abundance fitness was -0.128 ± 0.048.

In the case of NMTTNERRVIVPADPTLWSTDHVRQWLEWAVKEYGLPDVNHLLFQNIDGKELCKMTKDDFQRLTPSYNADILLSHLHYLRE [I41H], the abundance fitness is -0.075 ± 0.083.

Take NMTTNERRVIVPADPTLWSTDHVRQWLEWAVKEYGLPDVNELLFQNIDGKELCKMTKDDFQRLTPSYNADILLSHLHYLRE [I41E]: the abundance fitness is -0.053 ± 0.051.

For NMTTNERRVIVPADPTLWSTDHVRQWLEWAVKEYGLPDVNPLLFQNIDGKELCKMTKDDFQRLTPSYNADILLSHLHYLRE [I41P], the abundance fitness was -0.024 ± 0.067.
